Measurements published in US10441663B2, “Methods for treating cancer” (Bicycle Therapeutics Limited, priority 2016, dated 2019).
*1 amine or outer side, *2 acyl side, *3 side chain or, on linkers, in order; H or OH if unused. Where a SMILES comes first, the peptide text is derived from it. Bridges are numbered along the chain shown (N, C = ends). [ ]: non-standard residue; d: D form. The star is where a group is joined. X1 = COc1cc2cc(c1Cl)N(C)C(=O)C[C@H](OC(=O)[C@H](C)N(C)C(=O)CCSSC(C)CCC(=O)*)[C@]1(C)O[C@H]1[C@H](C)[C@@H]1C[C@@](O)(NC(=O)O1)[C@H](OC)/C=C/C=C(\C)C2; 1Nal = N[C@@H](Cc1cccc2ccccc12)C(=O)O; TBMB = c1c(C[*:1])cc(C[*:3])cc1C[*:2]; Tle = CC(C)(C)[C@H](N)C(=O)O; βAla = NCCC(=O)O; Sar = CNCC(=O)O

Tested on: EBC-1 xenograft
Assay: Efficacy of BT1718 in EBC-1 xenograft model (Example 1)
Format: in vivo, Mus Musculus
Parameters: key to Best response at 10 mg/kg: CR complete response; PR partial response
Conditions: for Tumor Size (mm^3): Mean ± SEM
Description: The objective of this study was to evaluate the anti-tumor efficacy of BT1718 in EBC-1 xenograft model in female BALB/c nude mice.
The EBC-1 tumor cells were maintained in vitro as a monolayer culture in EMEM medium supplemented with 10% heat inactivated fetal bovine serum at 37° C. in an atmosphere of 5% CO2 in air. The tumor cells will be routinely subcultured twice weekly by trypsin-EDTA treatment. The cells growing in an exponential growth phase will be harvested and counted for tumor inoculation.
Each mouse was inoculated subcutaneously at the right flank with EBC-1 tumor cells (10×10^6) in 0.2 ml of PBS for tumor development. The animals were randomized and treatment was started when the average tumor volume reaches approximately 165 mm^3 for the efficacy study.
All the procedures related to animal handling, care and the treatment in the study were performed according to the guidelines of the Association for Assessment and Accreditation of Laboratory Animal Care (AAALAC). At the time of routine monitoring, the animals were daily checked for any effects of tumor growth and treatments on normal behavior such as mobility, food and water consumption (by looking only), body weight gain/loss (body weights were measured every day), eye/hair matting and any other abnormal effect as stated in the protocol. Death and observed clinical signs were recorded on the basis of the numbers of animals within each subset.
The major endpoint was to see if the tumor growth could be delayed or mice could be cured. Tumor size was measured three times weekly in two dimensions using a caliper, and the volume was expressed in mm^3 using the formula: V=0.5 a×b^2 where a and b are the long and short diameters of the tumor, respectively. The tumor size was then used for calculations of T/C value. The T/C value (in percent) is an indication of antitumor effectiveness; T and C are the mean volumes of the treated and control groups, respectively, on a given day.
TGI was calculated for each group using the formula: TGI (%)=[1−(Ti−T0)/(Vi−V0)]×100; Ti is the average tumor volume of a treatment group on a given day, T0 is the average tumor volume of the treatment group on the day of treatment start, Vi is the average tumor volume of the vehicle control group on the same day with Ti, and V0 is the average tumor volume of the vehicle group on the day of treatment start.
Summary statistics, including mean and the standard error of the mean (SEM), are provided for the tumor volume of each group at each time point.
Statistical analysis of difference in tumor volume among the groups was conducted on the data obtained at the best therapeutic time point after the final dose.
A one-way ANOVA was performed to compare tumor volume among groups, and when a significant F-statistics (a ratio of treatment variance to the error variance) was obtained, comparisons between groups were carried out with Games-Howell test. All data were analyzed using Prism. P<0.05 was considered to be statistically significant.

## COc1cc2cc(c1Cl)N(C)C(=O)C[C@H](OC(=O)[C@H](C)N(C)C(=O)CCSSC(C)CCC(=O)NCCC(=O)N(C)CC(=O)N(C)CC(=O)N(C)CC(=O)N(C)CC(=O)N(C)CC(=O)N(C)CC(=O)N(C)CC(=O)N(C)CC(=O)N(C)CC(=O)N(C)CC(=O)N[C@@H](C)C(=O)N[C@H]1CSCc3cc4cc(c3)CSC[C@H](NC(=O)[C@@H](C)NC(=O)[C@H](Cc3cccc5ccccc35)NC(=O)[C@H](CCC(=O)O)NC(=O)[C@H](CC(N)=O)NC(=O)[C@@H](C)NC1=O)C(=O)N[C@@H](CCC(=O)O)C(=O)N[C@@H](CC(=O)O)C(=O)N[C@@H](Cc1ccccc1)C(=O)N[C@@H](Cc1ccc(O)cc1)C(=O)N[C@@H](CC(=O)O)C(=O)N[C@@H](C(C)(C)C)C(=O)N[C@H](C(N)=O)CSC4)[C@]1(C)O[C@H]1[C@H](C)[C@@H]1C[C@@](O)(NC(=O)O1)[C@H](OC)/C=C/C=C(\C)C2 (some centres unmarked) [BT1718] ({X1-βAla}-[Sar][Sar][Sar][Sar][Sar][Sar][Sar][Sar][Sar][Sar]AC[dA]NE[1Nal][dA]CEDFYD[Tle]C-NH2; linker 12-18-25 via TBMB (inferred))
4.5 mpk biw, day 21
  Tumor Volume: 526 ± 95 mm^3
9 mpk qw, day 0
  Body Weight: 24.0 ± 0.4 g
  Body Weight (% Change): 0.0%
  Tumor Volume: 163 ± 19 mm^3
9 mpk qw, day 2
  Body Weight: 23.2 ± 0.6 g
  Body Weight (% Change): −3.4 ± 0.9%
  Tumor Volume: 182 ± 25 mm^3
9 mpk qw, day 4
  Body Weight: 23.8 ± 0.5 g
  Body Weight (% Change): −0.7 ± 1.8%
  Tumor Volume: 200 ± 28 mm^3
9 mpk qw, day 7
  Body Weight: 24.7 ± 0.2 g
  Body Weight (% Change): 2.8 ± 0.6%
  Tumor Volume: 202 ± 64 mm^3
9 mpk qw, day 9
  Body Weight: 23.8 ± 0.5 g
  Body Weight (% Change): −1.1 ± 0.7%
  Tumor Volume: 187 ± 70 mm^3
9 mpk qw, day 11
  Body Weight: 24.7 ± 0.4 g
  Body Weight (% Change): 2.8 ± 0.9%
  Tumor Volume: 164 ± 61 mm^3
9 mpk qw, day 14
  Body Weight: 24.9 ± 0.4 g
  Body Weight (% Change): 3.7 ± 0.8%
  T/C (%): 12%
  TGI (%): 101%
  Tumor Volume: 154 ± 72 mm^3
  Tumor Size (mm^3): 154 ± 72 mm^3
9 mpk qw, day 16
  Body Weight: 24.6 ± 0.2 g
  Body Weight (% Change): 2.3 ± 0.6%
  Tumor Volume: 186 ± 83 mm^3
9 mpk qw, day 18
  Body Weight: 24.8 ± 0.2 g
  Body Weight (% Change): 3.2 ± 0.8%
  Tumor Volume: 245 ± 119 mm^3
9 mpk qw, day 21
  Body Weight: 24.8 ± 0.2 g
  Body Weight (% Change): 3.1 ± 1.0%
  Tumor Volume: 320 ± 153 mm^3
10 mpk tiw, day 0
  Body Weight: 24.2 ± 0.4 g
  Body Weight (% Change): 0.0%
  Tumor Volume: 167 ± 11 mm^3
10 mpk tiw, day 2
  Body Weight: 23.2 ± 0.6 g
  Body Weight (% Change): −4.0 ± 1.3%
  Tumor Volume: 216 ± 21 mm^3
10 mpk tiw, day 4
  Body Weight: 23.7 ± 0.5 g
  Body Weight (% Change): −2.1 ± 0.9%
  Tumor Volume: 205 ± 24 mm^3
10 mpk tiw, day 7
  Body Weight: 22.7 ± 0.6 g
  Body Weight (% Change): −6.2 ± 0.8%
  Tumor Volume: 114 ± 10 mm^3
10 mpk tiw, day 9
  Body Weight: 23.1 ± 0.4 g
  Body Weight (% Change): −4.4 ± 0.3%
  Tumor Volume: 45 ± 4 mm^3
10 mpk tiw, day 11
  Body Weight: 22.9 ± 0.6 g
  Body Weight (% Change): −5.2 ± 1.1%
  Tumor Volume: 16 ± 3 mm^3
10 mpk tiw, day 14
  Body Weight: 23.8 ± 0.5 g
  Body Weight (% Change): −1.6%
  T/C (%): 0%
  TGI (%): 115%
  Tumor Volume: 0 ± 0 mm^3
  Tumor Size (mm^3): 0 ± 0 mm^3
15 mpk biw, day 0
  Body Weight: 23.7 ± 0.3 g
  Body Weight (% Change): 0.0%
  Tumor Volume: 161 ± 12 mm^3
15 mpk biw, day 2
  Body Weight: 22.7 ± 0.4 g
  Body Weight (% Change): −4.2 ± 0.6%
  Tumor Volume: 173 ± 11 mm^3
15 mpk biw, day 4
  Body Weight: 22.6 ± 0.3 g
  Body Weight (% Change): −4.5 ± 0.3%
  Tumor Volume: 136 ± 10 mm^3
15 mpk biw, day 7
  Body Weight: 22.8 ± 0.4 g
  Body Weight (% Change): −3.7 ± 2.5%
  Tumor Volume: 79 ± 1 mm^3
15 mpk biw, day 9
  Body Weight: 22.7 ± 0.2 g
  Body Weight (% Change): −4.3 ± 1.7%
  Tumor Volume: 36 ± 2 mm^3
15 mpk biw, day 11
  Body Weight: 23.4 ± 0.3 g
  Body Weight (% Change): −1.2 ± 0.3%
  Tumor Volume: 12 ± 0 mm^3
15 mpk biw, day 14
  Body Weight: 23.7 ± 0.5 g
  Body Weight (% Change): 0.2 ± 1.4%
  T/C (%): 0%
  TGI (%): 115%
  Tumor Volume: 0 ± 0 mm^3
  Tumor Size (mm^3): 0 ± 0 mm^3
30 mpk qw, day 0
  Body Weight: 24.6 ± 0.6 g
  Body Weight (% Change): 0.0%
  Tumor Volume: 166 ± 10 mm^3
30 mpk qw, day 2
  Body Weight: 20.9 ± 0.3 g
  Body Weight (% Change): −14.9 ± 2.2%
  Tumor Volume: 166 ± 22 mm^3
30 mpk qw, day 4
  Body Weight: 21.9 ± 1.0 g
  Body Weight (% Change): −10.8 ± 4.3%
  Tumor Volume: 128 ± 6 mm^3
30 mpk qw, day 7
  Body Weight: 23.1 ± 1.0 g
  Body Weight (% Change): −6.2 ± 3.5%
  Tumor Volume: 89 ± 4 mm^3
30 mpk qw, day 9
  Body Weight: 20.8 ± 1.0 g
  Body Weight (% Change): −15.5 ± 3.4%
  Tumor Volume: 47 ± 3 mm^3
30 mpk qw, day 11
  Body Weight: 22.1 ± 0.9 g
  Body Weight (% Change): −10.3 ± 3.3%
  Tumor Volume: 18 ± 2 mm^3
30 mpk qw, day 14
  Body Weight: 24.0 ± 1.0 g
  Body Weight (% Change): −2.4 ± 3.2%
  T/C (%): 0%
  TGI (%): 115%
  Tumor Volume: 0 ± 0 mm^3
  Tumor Size (mm^3): 0 ± 0 mm^3
EBC-1, 10 mg/kg
  Best response at 10 mg/kg: CR
EBC-1, dose leading to tumor-stasis
  Minimally Effective Dose IV BIW: <10 mg/kg
Other groups (all except 30 mg/kg qw)
  body weight effect: maintained their bodyweight well
Same total dose, schedules from daily to a single weekly dose
  treatment effect: Effective treatment
